Assay results published in US20080201790A1, “Method and product for regulating cell responsiveness to external signals” (priority 1993, published 2008).

Experiments:
Gal4/Jun = assay: Gal4-TK-luciferase transactivation analysis, Gal4/Jun; format: cell-based; details: IPTG-induced stable expression in Swiss 3T3 cells
Description: (§1) Swiss 3T3 cells were transfected using calcium phosphate or lipofectamine with the reporter plasmid Gal4-TK-luciferase, which contains four Gal4 binding sites (Sadowski, I., et al. (1988). Nature 335, 563-564). adjacent to a minimal thymidine kinase (TK) promoter that controls expression of luciferase, in the presence or absence of activator plasmids encoding Gal4(1-147)/Myc(7-101) (Gupta et al. (1993) Proc. Natl. Acad. Sci. USA 90:3216-3220), Gal4(1-47)/Elk-1(83-428) (Marais, et al. (1993) Cell 73:381-393) or Gal4(1-147)/c-Jun(1-233) Hibi et al. (1993) Genes & Development 7:2135-2148). Transfections included pCMV5 without a cDNA insert (basal control), pCMV5MEKKCOOH and in some experiments pCMV5BxBRaf. Cells were incubated for 24-48 hr after transfection, lysed and assayed for luciferase activity. Values were normalized to equivalent μg protein for all experiments.

Gal4/Myc = assay: Gal4-TK-luciferase transactivation analysis, Gal4/Myc; format: cell-based; details: IPTG-induced stable expression in Swiss 3T3 cells
Description: as §1

JNK/SAPK = JNK/SAPK activity in Swiss 3T3 clones with inducible MEKKCOOH; format: cell-based; details: 17 hours IPTG induction
Description: JNK/SAPK: Activity was measured using GST (glutathione S-transferase)—c-Jun (1-79) BOUND to glutathione-Sepharose-4B (Hibi et al. supra). Cells expressing MEKKCOOH or control cells were lysed in 0.5% Nonidet P40 (NP40), 20 mM Tris-HCl, pH 7.6, 0.25 NaCl, 3 mM EDTA, 3 mM EGTA, 1 mM dithiothreitol, 1 mM phenylmethylsulfonyl fluoride, 2 mM sodium vanadate, 20 μg/ml aprotinin and 5 μg/ml leupeptin. Lysates were centrifuged at 15,000×g for 10 min to remove nuclei and supernatants (25 μg protein) mixed with 10 μl of GST-c-JUN(1-79)-Sepharose (3-5 μg of GST-c-Jun(1-79)). The mixture was rotated at 4° C. for 1 hr, washed 2× in lysis buffer and 1× in kinase buffer (20 mM Hepes, pH 7.5, 10 mM MgCl2, 20 mM β-glycerophosphate, 10 mM p-nitrophenyl phosphate, 1 mM dithiothreitol, 50 μM sodium vanadate). Beads were suspended in 40 μl of kinase buffer with 10 μCi Of [γ^32P] ATP and incubated at 30° C. for 20 min. Samples were boiled in Laemmli buffer and phosphorylated proteins resolved on SDS/10% polyacrylamide gels. To verify the selectivity of the JNK/SAPK assay cell lysates were fractionated by Mono Q ion exchange chromatography and each fraction assayed as described above. Fractions were also immunoblotted with a rabbit antisera recognizing JNK/SAPK. […]

ERK = ERK activity in Swiss 3T3 clones with inducible MEKKCOOH; format: cell-based; details: 17 hours IPTG induction
p38/Hog1 = p38/Hog1 activity in Swiss 3T3 clones with inducible MEKKCOOH; format: cell-based; details: 17 hours IPTG induction
GST-Ras^V12 = assay: Binding of COS cell-expressed MEKK1 proteins to GST-Ras^V12 agarose; details: COS cell lysates, immunoblot
Description: COS cells were transiently transfected by the DEAE-dextran protocol as generally described in Example 3. Cos cells were transfected with: (1) p-MEKK1 containing a nucleic acid molecule encoding MEKK1 as described in Lange-Carter et al. (Science 260:315-319, […]); (2) p-MEKKNH2 containing a nucleic acid molecule that encodes a 858 base pair Pvull(682)-Ncol(1541) restriction digest fragment of the amino terminus of MEKK1 ligated into pCMV5; (3) p-MEKKCOOH containing a nucleic acid molecule that encodes a 1435 base pair Ncol(1541)-Sspl(2976) restriction digest fragment that includes the entire kinase domain of MEKK1 ligated into pCMV5; (4) pCMV5 without insert; or (5) p-C4Raf containing a nucleic acid molecule that encodes the amino terminus of Raf-1 ligated into pCMV5. COS cells expressing the various MEKK1 proteins were […] COS cells expressing the various MEKK1 proteins were lysed in EB (1% Triton X-100, 10 mM Tris HCl [pH 7.4], 5 mM EDTA, 50 mM NaCl, 50 mM NaF, 0.1% bovine serum albumin, 0.2 U/ml aprotinin, 1 mM phenylmethylsulfonyl fluoride and 2 mM Na3 VO4). The lysates were separated into two equal parts for separate binding reactions. Half of the lysate was incubated with GST agarose (1.5 μg) while half of the lysate was incubated with GST-Ras^V12 agarose (1.5 μg) (purchased from UBI) for 1 hr at 4° C. The GST-Ras^V12 was preincubated at 30° C. for 30 min with 1 mM nucleotide (GDP or GTPγS). The nucleotide binding reaction was stopped by adding MgCl2 to a final concentration of 20 mM. After the 1 hr binding reaction the agarose beads were pelleted at 2000 rpm for 2 min and washed 3 times with PBS+1.0% Triton X-100. The washed agarose beads were boiled in Laemmli SDS sample buffer and the proteins resolved by SDS polyacrylamide gel electrophoresis. Proteins were transferred onto nitrocellulose for immunoblotting with antibodies specific for an NH2 terminal fusion protein (described in Example 1) or a COOH terminal peptide (described in Example 1).

B1: MEKKCOOH: a truncated activated form of MEKK1 including the entire kinase domain (protein)
chain: MAMSASQDALPIVPQLQVENGEDIIIIQQDTPETLPGHTKAKQPYREDAEWLKGQQIGLGAFSSCYQAQDVGTGTLMAVKQVTYVRNTSSEQEEVVEALREEIRMMGHLNHPNIIRMLGATCEKSNYNLFIEWMAGGSVAHLLSKYGAFKESVVINYTEQLLRGLSYLHENQIIHRDVKGANLLIDSTGQRLRIADFGAAARLASKGTGAGEFQGQLLGTIAFMAPEVLRGQQYGRSCDVWSVGCAIIEMACAKPPWNAEKHSNHLALIFKIASATTAPSIPSHLSPGLRDVAVRCLELQPQDRPPSRELLKHPVFRTTW
- Gal4/Jun activity (Gal4/Jun): little effect on Gal4/Jun activity
- transactivation function of c-Myc (Gal4/Myc): markedly activated
- JNK/SAPK activity (JNK/SAPK): stimulated JNK/SAPK activity
- ERK activity (ERK): did not activate either ERK or p38/Hog1 activity
- p38/Hog1 activity (p38/Hog1): did not activate either ERK or p38/Hog1 activity
- binding to GST-Ras^V12 (in words) (GST-Ras^V12): bound to GST-Ras^V12 in a GTP dependent manner
